Source: article PMC515284, “Site-specific mutagenesis of Drosophila proliferating cell nuclear antigen enhances its effects on calf thymus DNA polymerase δ” (BMC Biochemistry, 2004)
Numbering of substitutions follows the chain as printed. Names and notes keep the numbering of the source. Values belong to the binder of their own block, whether it stands above or below them.

Target: T1, calf thymus DNA polymerase δ (two-subunit form) (bovine (endogenous in calf thymus), UniProt P28339 1-1106; P49004 1-469)
T1 construct: DNA polymerase δ larger, catalytic subunit p125, calf thymus (bovine); DNA polymerase δ smaller subunit p50, calf thymus (bovine); all experiments used the two-subunit form (p125 and p50); also called pol δ; calf thymus pol δ; source: purified from calf thymus (to apparent homogeneity)
Test: native gel or EMSA; nondenaturing PAGE band mobility shift of 32P-labelled 30-21-mer template-primer (0.1 pmol) with 10 ng pol δ and 70 ng PCNA; without MgCl2, 3 mM EDTA in incubation and gel buffer; essentially qualitative; the complex holds DNA as well
Conditions: both partners purified

T1 sequence (P28339 whole entry, stated change not applied, chain 1 of 2): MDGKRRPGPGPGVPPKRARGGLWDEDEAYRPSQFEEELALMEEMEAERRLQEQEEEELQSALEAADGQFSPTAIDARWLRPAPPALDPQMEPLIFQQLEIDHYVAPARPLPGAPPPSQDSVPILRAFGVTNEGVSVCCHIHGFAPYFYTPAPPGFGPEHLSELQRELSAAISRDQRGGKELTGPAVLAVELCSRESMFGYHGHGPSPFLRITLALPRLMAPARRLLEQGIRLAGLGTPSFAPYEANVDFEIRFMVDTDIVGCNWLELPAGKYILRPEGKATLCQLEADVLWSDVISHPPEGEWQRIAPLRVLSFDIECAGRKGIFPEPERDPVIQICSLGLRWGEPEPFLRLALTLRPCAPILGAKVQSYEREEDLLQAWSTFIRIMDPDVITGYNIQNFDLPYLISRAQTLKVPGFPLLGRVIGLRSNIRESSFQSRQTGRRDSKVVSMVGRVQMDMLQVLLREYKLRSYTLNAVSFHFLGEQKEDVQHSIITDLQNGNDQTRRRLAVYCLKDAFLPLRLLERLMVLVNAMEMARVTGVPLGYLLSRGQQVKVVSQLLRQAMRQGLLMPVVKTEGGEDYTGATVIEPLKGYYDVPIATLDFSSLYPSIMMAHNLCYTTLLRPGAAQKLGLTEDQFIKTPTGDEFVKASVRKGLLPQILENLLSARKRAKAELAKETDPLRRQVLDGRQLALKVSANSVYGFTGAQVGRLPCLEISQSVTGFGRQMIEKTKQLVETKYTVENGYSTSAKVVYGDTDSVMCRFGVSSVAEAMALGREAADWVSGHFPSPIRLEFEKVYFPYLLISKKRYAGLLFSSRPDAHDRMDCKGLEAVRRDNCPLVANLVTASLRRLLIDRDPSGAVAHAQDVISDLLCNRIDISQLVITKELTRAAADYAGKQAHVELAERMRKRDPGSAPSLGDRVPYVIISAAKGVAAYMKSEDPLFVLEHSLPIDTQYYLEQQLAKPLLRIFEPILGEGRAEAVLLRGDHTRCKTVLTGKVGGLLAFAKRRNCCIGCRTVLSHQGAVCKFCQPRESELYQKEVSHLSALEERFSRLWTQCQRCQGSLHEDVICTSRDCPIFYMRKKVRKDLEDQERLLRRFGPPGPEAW
T1 sequence (P49004 whole entry, stated change not applied, chain 2 of 2): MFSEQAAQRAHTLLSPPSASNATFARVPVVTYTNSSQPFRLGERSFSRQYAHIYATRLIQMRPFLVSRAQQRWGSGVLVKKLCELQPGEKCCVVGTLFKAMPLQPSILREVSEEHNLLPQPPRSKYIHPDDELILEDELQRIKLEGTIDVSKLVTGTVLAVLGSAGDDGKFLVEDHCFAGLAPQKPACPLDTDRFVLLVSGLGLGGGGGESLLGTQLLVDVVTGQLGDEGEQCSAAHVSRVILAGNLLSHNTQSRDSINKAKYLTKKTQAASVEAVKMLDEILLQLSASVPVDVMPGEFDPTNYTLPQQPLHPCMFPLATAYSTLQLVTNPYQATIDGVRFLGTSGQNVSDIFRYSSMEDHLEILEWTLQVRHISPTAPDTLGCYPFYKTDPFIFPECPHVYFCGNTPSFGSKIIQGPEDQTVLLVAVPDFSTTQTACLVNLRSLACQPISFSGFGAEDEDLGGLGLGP

binding result: binds
B1: NH2-terminally his-tagged Drosophila PCNA with amino acids 119-133 replaced by the corresponding human sequence (other, Drosophila melanogaster | human, UniProt P17917 1-118, looked up)
chain: MFEARLGQATILKKILDAIKDLLNEATFDCSDSGIQLQAMDNSHVSLVSLTLRSDGFDKFRCDRNLSMGMNLGSMAKILKCANNEDNVTMKAQDNADTVTIMFESANQEKVSDYEMKLMDLDVEQLGIPEQEYSCVVRMPAMEFARICRDLAQFSESVVICCTKEGVKFSASGDVGTANIKLAQTGSVDKEEEAVIIEMQEPVTLTFACRYLNAFTKATPLSTQVQLSMCADVPLVVEYAIKDLGHIRYYLAPKIEDNET
notes: PCNA, Drosophila melanogaster, the stretch before the interdomain connector loop (up to residue 118); PCNA, Drosophila melanogaster, the stretch after the interdomain connector loop (from residue 134); source: E. coli M15 [pREP4], purified (Ni2+-IDA Sepharose); not shown: His tag, N-terminal, kept

binding result: binds
B2: NH2-terminally his-tagged Drosophila PCNA with glutamine 123 mutated to valine (natural protein, Drosophila melanogaster, UniProt P17917 1-260, looked up)
chain: B1 chain with D120N, Q125H, Q131T, E132D, Y133F
notes: proliferating cell nuclear antigen (PCNA), Drosophila melanogaster, with Q123V; also called Q123V dPCNA; Q123V; source: E. coli M15 [pREP4], purified (Ni2+-IDA Sepharose); not shown: His tag, N-terminal, kept
